From the nanobody polyreactivity screen of Harvey et al. (2022)

Experiment: yeast display, Sf9 membrane polyspecificity reagent, FACS + sequencing; frameworks hold sequencing errors
Procedure, shortened: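 A synthetic nanobody library was expressed on Saccharomyces cerevisiae BJ5465 by galactose induction for 36–48 hours. The library was stained for 1 hour at 4 °C with 10% biotinylated, detergent-solubilized Sf9 membrane reagent and enriched with streptavidin microbeads before FACS. Low and high (top ~1%) gates were set on anti-HA fluorescence for expression and streptavidin fluorescence for reagent binding, and each polyreactivity label reflects the gate of origin.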

Row | Sequence | polyreactivity (PSR sort gate)
1 | HVQLVESGGGLVQAGGSLRLSCAASGSIFDTYAMGWYRQAPGKERELVAAINFSDGDTYYADSVKGRFTSSRDNSKNTVYLQLNSLKPEDTAVYDCAAEVWDPPEYYDEYDYWGQGTQVTVSS | low polyreactivity
2 | HVQLVESGGGLVQAGGSLRLSCAASGSIFIIYAMGWYRQAPGKERELVAAMDWSDGSTYYADSVKGRFTISRDNANNTVYLQMNSLKPEDTAVYYCNTQSRTLGWPLDYWGQGTQVTVSS | high polyreactivity
3 | HVQLVESGGGLVQAGGSLRLSCAASGSIFVVYAMGWYRQAPGKERELVASIRTGGSTNYADSVKGRYTISRDNAKNTVYLQMNSLKPEDTAVYYCAAASWNSNRHYYVARYYYWGQGTQVTVSS | high polyreactivity
4 | HVQLVESGGGLVQAGGSLRLSCAASGSIFVYNAMGWFRPAPGKERELVAGITFIGGSTYYADSVKGRFTISRDNAKNTVYLHMNSLKPVDNAVSYCATQEDWEDDWGQGTKVTVSS | low polyreactivity
5 | HVQLVESGGGLVQAGGSLRLSCAASGSTVRRYAMGWYRQAPGKEREFVASITWRGGGTYYADSVKGRFTISRDNAKNTVYLQMNSLKPEETAVYYCASATQVRGHSLPYGYWGQGTQVTVSS | high polyreactivity
6 | HVQLVESGGGLVQAGGSLRLSCAATGRIFWLYAMGWYRQAPGKERELVAAISSGGSTSYADSVKGRFTISRDNAKNTVYVQMNSLKPEDTAVYYCNATLLFPQLDGPESGEFDYWGQGTQRTVSS | low polyreactivity
7 | HVQLVESGGGLVQAGGSLRLSCDASGRTFYRYVIGWYRQAPGKERELVAAISKSDGSSYYADSVKGRFTISRDNAKNTVYLQMNSLKPEDTAVYYCAAQYPTFYSPRPFNYWGQGTQVTVSS | high polyreactivity
8 | HVQLVESGGGLVQAGGSLRLSCPASGRTFADNAMGWYRQAPGKERELVASISSGTSTNYADSVKGRFTISRDNAQNTVYVQMNSLKPEDTAVYYCNADGPIWYTAVLGVGRYYGWTDYWGQGTQVTVSS | low polyreactivity
9 | HVQLVESGGGLVQAGGSLRVSCAASGRIFYYCARGWYGQAPGKEWELVAAITWSGGSTYYADSLMGRFTISRDNANNTVYVHKNSLKPEDPAVAYCTKSAAITGNGQMDYWGQCTQVTVSS | low polyreactivity
10 | HVQLVESGGRLVQAGGSLRLSSAASGLNFYYYAIGWSRQAPGKERELVAAISRRGGSTYYADSVKGRFTISRDNAKNTVYLQMNSLKPEVTEVYYCAAKSGSFVHGGYQTPVYGSDYWGQGTQVTVSS | high polyreactivity
11 | HVQLVESVGGLVQAGGSLRLRCAASGSIFYRNAMGWYRKAPGKERELVAAISSDGSTNYADSVKGRFTISRDNAKNSVYFQMNSLKPEDTAVYYCAAPWTQILDYWGQGTQVTVSS | low polyreactivity
12 | HVQLVESVGGLVQAGGSLRLSCAASGRILGDNVMGWYRQAPGKERELVAAISSGSGSTYYADSVKGRFTISRDNAKNTVYLQMNSLKPEDTAVYYCAAGPYIYPRYDYWGQGTQVTVSS | low polyreactivity
13 | HVQLVETGGGIVQAGGSLRLSCAASGFIFRYYARGWYRPSHGKETELVAAIDYSGGSTNYADSVKGRFTISRDYAKNTVSLQMNSLKPEDTAVYYCAAYLGWGYDYWGQGTQVTVSS | low polyreactivity
14 | HVQRVESAGGLVQAGGSLRLSCADSGLIFRGNAMGWYRQAPGKVRELVATISYSGGSTYYADSVKGRFTISRENAKNTVYLQMNSLKPEDTAVYYCNRDPDPWGFQPDWYYGSYDYWGQGTQVTVSS | low polyreactivity
15 | KVQHVESGGGLVQAGGSLRLSSAASGRISWSYAMGWYRQAPGKESELVAAITSGGTTNYAYSVKGRFTISRDNAKYTVYLQMNSLKPEDTAVYYCARDSYQLGLIRDPLEYDFWGKGTQVTVSS | low polyreactivity
16 | KVQLVEKGGGLVQAGGSLRLSSAASGLNFTIYSMGWYRQEPGKERELVATISQGGGSTYADSVKGRFTISRDNAKNTVYLQMNSLKPEDTAVYYCNAKVVWYYLYDYWGQGTQVTVSS | low polyreactivity

Row | Sequence | polyreactivity (PSR sort gate)
17 | KVQLVESCGGLVQAGGSLRLSCAASGFIISNYAMGWYRQAPGKERELVASISWGGGSTYYADSVKGSFTISRDNAKNTVYLQMNSLKPEDTAVYYCAAPSWDGIAYYGGYDYLGQGTQVTVSS | high polyreactivity
18 | KVQLVESGGGLVQAGGSLGLSCAASGSIFPSNFMGCYRQAPGKERELFAAISNTGSTYYADSVKGRVTISRDNAKNTVYLQMNSLKPEDTAVYYCAAEYWSYAHGGQLYGYDYWGQGSQVTVSS | low polyreactivity
19 | KVQLVESGGGLVQAGGSLRFSCAASGFIFRNYAMGWYRQAPGKERELVAAITARGTRTYYSDSVKGRFTISRDNAKNTVYLQMNSLKPEDTAVYYCAAVVLPSRQYDYWGQGTQVTVSS | high polyreactivity
20 | KVQLVESGGGLVQAGGSLRFSCAASGSTFYIYAMGWYRPAPGKERELVATISSTGSTHYADSVKGRFTLSRDNAKNTVYLQMISLKPEDTAVYYCNPVYFGRYSRRDHWGQGTQVTVSS | high polyreactivity
21 | KVQLVESGGGLVQAGGSLRLSCAASGFTFLRYAMGGYRQAPGKERELVAAIRFSGGSTYYADSVKGRFTISRDNAKNNVYLQMNSLKPEDTAVYYCAAYIRSYGYDYWGQGTKVTVSS | high polyreactivity
22 | KVQLVESGGGLVQAGGSLRLSCAASGIIFNLYAMGWSRQAPGKERELVAAITSSGTSTYYADSVKGRFTISRDNAKNTLYLQMNSLKPEDTAVYYCAADRGFYYFVEYDYWGQGTQVTVSS | high polyreactivity
23 | KVQLVESGGGLVQAGGSLRLSCAASGRTFRTYAMGWYRQAPGKERELVAANSSGGSTNYADSVKGRFTISRDNAKNTVYLQMNSLKPEDTSVYYCATRPTSDFVKRRVYEWLDYWGQGTQVTVSS | low polyreactivity
24 | KVQLVESGGGLVQAGGSLRLSCAASGRTFWYYAMGWYRLSPGKERELVAVITSVSSTYYADSVKGRFTISRDNAKNTVYLQMNSLKPEDTAVYYCAVGRTYRRYSAASYNYWGQGTQVTVSS | high polyreactivity
25 | KVQLVESGGGLVQAGGSLRLSCAASGSIFDYYAMGWYRQAPGKEREFVAAISISGGSTNYADSVKGRFTISRDNAKNTVYLQMNSLKPEDTAVYYCAATSRWSSYGFYVQYNYWGQGSQVTVSS | high polyreactivity
26 | KVQLVESGGGLVQAGGSLRLSCAASGSILSPNAMGWYRQAPGKERELVAAINSGGGSTYYADSVKGRFTLSRDNAKNTVYLQMNSLKPEDTAVYYCAADHYYYRSRAYTYIIYDYWGQGTQVTVSS | low polyreactivity
27 | KVQLVESGGGLVQAGGSLRLSCAASGSTFIGNAMGWYRQAPGKERELVAAISRTGGSTYADSVKGRFTISRDNAKNTVYLQMNSLKPEDTAVYYCNAVRWYYDYWGQGTQVTVSS | high polyreactivity
28 | KVQLVESGGGLVQAGGSLRLSCAASGSTFRTYAMGWYRQAPGKERELVADITWRGGSTYYADSVKGRFTISRDNAKNTDYFQMNSLKPEDTAVYYCATDRGPEVVLYVYWGQGTQVTVSS | low polyreactivity
29 | KVQLVESGGGLVQAGGSLRLSCAASGTSSRYVMGLYRQSTGKERELVAAISWSGDSTYYADSVKGRFTISRDNAKNTVNLQMNSLKPEDTAVYYRAKDADFGLGATSYLEYDYWGQGTQVTVSS | low polyreactivity
30 | KVQLVESGGGLVQAGGSLRLSCDASGSIFTLNAMGWYRQAPGKARELVAAISSGGGTYYSDSVKGRFTISRDNAKNTVYLQMNTLKPEDSAVYYCAAEHYILDDYLCDYDYWGQGTQVTVSS | high polyreactivity
31 | LDQLVESGGGLVQAGGSLRLSCAASGSIFGPNAMGWNRKAPGKERELVAAISWSGASTYYADSVKGRFTITRDNEKNTVYLQMNSLKPEDTAVYYCAADYYGVSGSGYGYWGQGTQVTVSS | low polyreactivity
